Assay results as given in the DeepSol protein solubility set.

experiment: soluble on expression in E. coli; label from the status in PepcDB or PDB records

Sequence	soluble on expression in E. coli
MGSDKIHHHHHHDDPFYAPVYPEAPPTKIAATGSIYQDSQAASLYSDIRAHKVGDIITIVLKEATQAKKSAGNQIKKGSDMTLDPVYAGGSNLSLGGIPLDLRYKDSMNTKRESDADQSNSLDGSISANIMQVLNNGNLVVRGEKWISINNGDEFIRVTGIVRSQDIKPDNTIDSTRMANARIQYSGTGTFAEAQKVGWLSQFFMSDWWPF	not soluble
MNSLIPPPTSEQQMNMFRLRDKMSLLNAEFLKVINGYFTEKNHYDFSGTMKSYMDHVAQLKQIYKVDDDVAADMTVPRRTENSSESSGETVAPRKIAKAVRKNGTPKNPLNSTVFAASSPAATVASVPKFGDISVITKETPAPLAKTAEPLVAPAAPATARKRAIRGGGPLGGAESVVFKSGEDGQAATSSVKIPATTIKFPEPTKDFWTKKSDAPAAPSNSGSLFAFLGKELFSIKKNPPIYQNFSGDKPKETPKFSGFSFGKKPAEPSEEPKAADSTPKLTFGSPKEADLPKPASSLFGASPSKPLVFGGSSADSTTSAPKPFSALSTAASLFGSSSASTTTTATQPLSFGSSSTGGSSLFSGFAGLAQKAMENQNQAKPEGSGEDDEGEYVPPKVETVENQEPDAVLSSKVSVFKFTGKEYTKLGVGMLHIKDNDGKFSVLIRAATATGTVWLNSLCNKAMKATVVDAKGDRIRLTCPSSSTEMATMMIRFGTADGAKKFTDKILEVAV	not soluble
MHLLLLHGFTSHPVLTLGPLSERLKEAGWEVRQPALPGHGTRPEDLLKVRFQDWLLAAEEAYLELPEPRGVVGLSMGGLLAAHLAARHPTKALVALAPAFALKNPLAPYLHWLIPRFPGPPSIEDPELRKRNPNYPYFPTRAVLELLALMRKTPEVLPRVKARALVVEAGKDRVVKGVDRYFALLGSPRKDHLVFPESGHDLLLDRDREEVARAVRDWLLASDNYLQ	soluble
FNCLGMSNRDFLEGVSGATWVDLVLEGDSCVTIMSKDKPTIDVKMMNMEAANLAEVRSYCYLATVSDLSTKAACPTMGEAHNDKRADPAFVCRQGVVDRGWGNGCGLFGKGSIDTCAKFACSTKAIGRTILKENIKYEVAIFVHGPTTVESHGNYSTQVGATQAGRFSITPAAPSYTLKLGEYGEVTVDCEPRSGIDTNAYYVMTVGTKTFLVHREWFMDLNLPWSSAGSTVWRNRETLMEFEEPHATKQSVIALGSQEGALHQALAGAIPVEFSSNTVKLTSGHLKCRVKMEKLQLKGTTYGVCSKAFKFLGTPADTGHGTVVLELQYTGTDGPCKVPISSVASLNDLTPVGRLVTVNPFVSVATANAKVLIELEPPFGDSYIVVGRGEQQINHHWHKSGS	soluble
MKFAVIVFPGSNCDVDMFHAIKDELGEEVDYVWHDTENLDEYDAILLPGGFSYGDYLRCGAISRFANAMKAVQKAAEQGKPILGVCNGFQILVESGLLPGALIRNENLKFMCRTVQLRVENNETMFTSQYEKDEIINIPIAHGEGNYYCDEATLKQLEENNQIAFRYVENPNGSVSDIAGIVNEKGNVLGMMPHPERAVDELLGGAEGLKVFQSILKQWRETYVVNA	not soluble
MSLNASAPIPLNETQRLLRIRELCVLENTSDDVFDEIVAMTADFFQTPIALISIVDEHRQWFRARVGLNAQETPRNVSFCAYTILSDSLFEIPDATLDDRFMNNSLVTGHPDIRYYAGAPLITDDGIALGSLCVIDTKPREPMSEHQMQMLKRFASLVMKRIVSLRLSCFIDQPTGLYNRSRLQEDIHQALLSSVDYQLVVVDMITSAFLNDIVKALGYSFSQDLVTEIKSRLEHLLPPTCSLYKVSPTRFGFLLPGERAPDHLFRTILEDFETPVECRGIPVQMQVGLGVVTLNRDPTEEQDWMRMVISAADDARDRNLGWAMYEPHFDAAQQRAFKLLSSLTSAVHSHDQLRLVYQPRIDLASGLCTSVEALLRWNHPTLGPIGPAEFVPLAEKTALMRPLSLWVLTSAIEQAARWQQQGFDFRIAINVTPEDLTGPAFTDRMIRLLGQHKIDPTRFELEFTEGALMHNPAEVRHQLERMRQMGMDVAIDDFGTGYSNWNYLRQLPATTVKLDQSLIRNLASDKTDQRLVKALIGLAKKLGYCVVAEGIETDEIRRLVKQWGCDEGQGYLISKPMEADAVLNWLGPDRRLQTVTEAAEAAVIRDKRLEGHHHHHH	soluble
MAHHHHHHMYFVIEEWKNVIIKPSQLGPRYQQYIEDMLRNSVEGQCSVKYGYVICVIRIIHSEPGRVQDGTGMIVVKVKYQAIVFKPFKDEVLDAIVTDVNKLGFFAQAGPLKIFISRTAIPKYFEYSEDLHYPCFSSGDYNIKPQTTVRIKLQGIRYDLSNMFAIATINNEYLGCIESNILQVM	not soluble
AASQSTPWGIKAIYNNSNLTSTSGGAGINIAVLDTGVNTNHPDLSNNVEQCKDFTVGTNFTDNSCTDRQGHGTHVAGSALANGGTGSGVYGVAPEADLWAYKVLGDDGSGYADDIAEAIRHAGDQATALNTKVVINMSLGSSGESSLITNAVDYAYDKGVLIIAAAGNSGPKPGSIGYPGALVNAVAVAALENTIQNGTYRVADFSSRGHKRTAGDYVIQKGDVEISAPGAAVYSTWFDGGYATISGTSMASPHAAGLAAKIWAQSPAASNVDVRGELQTRASVNDILSGNSAGSGDDIASGFGFAKVQ	soluble
MAYSLTRKLLKDWKYFMRHPEKTQGLFHVRPHDSDLHLWHVVMYEPRTSLEVYLLLYIGGNDQDPYIIMKCLSPNCCFPINRTVSMTHLNYLLLKDLGLQDLLFHIWQPLFHIQATEDLQYSPSTVKFNRAWNRIIYKDFKSYFPELIGTLQPGDYSIVKSYSKNHNISNSNGGSVNEFMSSYNAQSHTFHAQDNSKNPYTNSSIGKSSMLSTLNNNNVNKRTHDYNAIDFMTKNLLACDDDSIHPVVSSKRSRTLACPDETNDNRGSEHYTKRKKI	soluble
MGSDKIHHHHHHMSFSNEMKVFSGNANRPLAEKIANYLNLQLGDCEVGRFADGEINVRINETVRGHDIFLIQPTSPPVNENLMELLIMIDAFKRASANTIAVVIPYYGYARQDRKAKGRDPISAKLVANLITVAGATRVLTVDLHAEQIQGFFDIPVDNLWSYPVFAEELLKRENIVPEETVVVSPDVGGVRRARRMAERLGTSLAILDKRRPSDNVAEVVNIIGEVEDKVVIMFDDIIDTAHSIVKGAEALKNAGAKRIIACATHGVFSDRALERIENSSIDTVYITDTIYHENLPEKVKVISVANLIGEAIMRIRKHLSVSTLFR	not soluble
MGSDKIHHHHHHMSIHPALESVGQLFGANLIFRVPRYQRYYAWDAEQIGDFLADLELCLKARAGGNRREHFFGGLVTVRTDVEGSSRQNMEVIDGQQRLASFSMLAAQLRNAAVQLAESVDAAVPDNPKEFLLEFAKTLKAEFERYKDKIKLQVVEIDRLELSKPDLIFFKDLVEGRNPTPSRMSHRLLKQAWDRIGAKLAQIVASENTDVEKAQALSLVDTVMEEDWNPHPHDH	not soluble
MGSDKIHHHHHHMHLPNSQIYKNFGESMNPFDIMKASQIACCLEVSSFKPGNVHRNRDYRDIKYHHFINAGIAFGNVVYEAAQKDRDVGLYIKKAVIESKKWSPTNANLGIIMLHIPIAMAAGKLENFDENKLKENLKKIAENTTVEDALNVYDAINIAMAYVNKPKKGPDVTSEDAKKELIEKGLTLLDVYKISAEWDNISKEWVDNFKISFEGYNLLKKYYDELNNINLAVTKTFLNLLAKYPDTLIARKRGFETALKVSKMAEDVLNNFKEEKVKEFDKYLSKEGNKLNPGTTADLIASSLMIFILDRIDKRETILW	not soluble
MKSCRSCKENPEVQRKRAEKPWRRAPKAKSEVEKHGIGPPDSDSGEEISFPWYNVTGKMLVVGMHVEIKRSDGRIHGAVIAEVKSNGRFMVEWYEKGETKGKESSLEELLTLNPSLQAPKPTPPPQPPQKTLQASTAVNRQNGIHAQSMILDDEDTFLLDHINMIPAKGASANKRPTGAFTQHVPVRMAPPSEKPLPTRRAPSPKEDAAPAPKSTRTTAAFKPDLDSTAITVPKHTARRTVVVAPAPAPVPAPPIANMTSQRAPSPVARVPSPKNVPRSYPQQDVQPSNGNFAFAEMIRNYRAQIDYRPLSMFDGVNENRISVCVRKRPLNKKELTKAEVDVITIPSRDITILHQPQTRVDLTKYLDNQKFRFDYSFDEYANNELVYRFTAAPLVKTVFDNGTATCFAYGQTGSGKTHTMGGDFSGKKQNASMGIYALTARDVFRMLEQPQYRRKDLSVHCAFFEIYGTKTYDLLNDKAELRVLEDKMQKVQVVGLKEEQAHNEQDVLELINKGTLVRTAGTTSANANSSRSHAIFQIILRQGKKVWGKFSLIDLAGNERGQDTRECDRDTRKEGANINTSLLALKECIRGMARNSSHVPFRQSKLTMVLRDSFIGEKSRTVMISMISPGISSSDHTLNTLRYADRVKEMGTDGSGEATPIRDEELFLPPSADKSDEEYDEMVEKQEHRRVAVDHVRNLKDMSEKIIRETTIVLSNEPSAAQKAECLAKLDQLAQIVSNTRVAVENV	soluble
SMANHLVKPDNRNCKRPRELESPVPDSPQLSSLGKSDSSFSEISGLFYKDEALEKDLNDVSKEINLMLSTYAKLLSERAAVDASYIDEIDELFKEANAIENFLIQKREFLRQRFTVIANTLHR	soluble
MTHPVAVKACLFDMDGLLINTEDIYTETLNETLAEFGKGPLTWDVKIKLQGLPGPKQEKG	soluble
MAHHHHHHMERGKNPMEAELNRAPQEVSLSAFSLLFSEIVQYCLWKSKRGYRIEDSLHEMGLRVGYKLNEYLPYKNKTKRCVNIISILTFLSKHLWKYLFQHSSDLLKSQDSIYEYMLCDKNILLNRFISVPKDYGNINCASFAAGIVEGMLCSAEFQAEVTAHTVYEDEKNFNTTIFIKFYPEVVNRERGEK	not soluble
SLVKSTSCTTIDFMNMSQLTERTFTSSESLSSLSLFLSLARGQCRPGKFWHRRSFRQKFLLRSLIMPRLSVEWMNELSHWPNLNVLLTRQPRLPVRLHRPYLAANLSRKQLLEALRYHYALLRGCMSAEEFSLYLNTPGLQLAKLEGKNGEQFTLELTMMISMDKEGDSTILFRNSEGIPLAEITFTLCEYQGKRTMFIGGLQGAKWEIPHQEIQNATKACHGLFPKRLVMEAACLFAQRLQVEQIIAVSNETHIYRSLRYRDKEGKIHADYNAFWESVGGVCDAERHYRLPAQIARKEIAEIASKKRAEYRRRYEMLDAIQPQMATMFRG	not soluble
MSLTDAPDLILHRGLFTTLDRSNPIASAVAISGGRFSAVGHDREVLPLAGPSTKVIDLKGRRVLPGLIDNHLHIIRGGLNFNMELRWDGVRSLADAMNMLKRQVAITPPPQWVRVVGGFTEHQFAEKRLPTIEELNAVAPDTPVFLLHLYDRAILNGAALRAVGYTRDTPEPPGGEITRDANGNPTGLLLAKPNANILYATLAKGPKLPFDYQVNSTRHFMRELNRLGVTGAIDAGGGFQNYPDDYAVIQKLDEEGLLTIRLAYNLFTQKPKGEKDDFLNWTKTSKYKQGNDYFRHNGAGEMLVFSAADFEDFRVPRPDMPPEMEGELEEVVRILVQNKWPWRLHATYDETISRALDVFEKVNQDTPLDGLHWFFDHAETISDRSIDRIAALGGGIAVQHRMAYQGEYFVERYGFGAAEATPPVRRILDSGVKVSAGTDATRVASYNPWVSLSWLVTGRTVGGLRITPQRNCLDRETALRMWTENVTWFSNEEGNKGRVAVGQLADVVVPDRDYFSCSEAEIADTTSLLTMVGGKVVYGAGEFAGLDDSEGHHHHHH	not soluble
MDLPDPYLPGAISLFEQLDKKLLVVLRDGRKLIGFLRSIDQFANLILEDVVERTFVEKYFCETGQGFMLIRGENVELAGEIDDTIETGLTQVSPEEFRRLEDEYIAKNPPKFLKRQAEKTEEHDA	not soluble
